Results on two substances are retold here after publication PMC9262799, “The first step into phenolic metabolism in the hornwort Anthoceros agrestis: molecular and biochemical characterization of two phenylalanine ammonia-lyase isoforms” (Planta, 2022).

Usually Km stands for the concentration of substrate that gives half-maximal velocity. As usually defined, the Vmax is the rate approached at saturating substrate. Usually kcat stands for the number of substrate molecules converted per active site and unit of time at saturation. Broadly, the kcat/Km is the turnover number divided by the Michaelis constant.

Format in all cases: biochemical, Anthoceros agrestis
Data set [1] deals with T1, N[C@@H](Cc1ccccc1)C(=O)O.
T1 construct: full-length, 752 residues (81,895 Da), N-terminal 6xHis-tag kept (84,058 Da with tag), pET15b, E. coli SoluBL21, Ni-NTA; cDNA from suspension culture; PALs mostly homotetramers, oligomer not measured here
Nature of the data set: HPLC of t-cinnamic acid formed, Michaelis-Menten fit. The note with it: boric acid/sodium tetraborate buffer pH 8.8, 36 °C, 10 min, 1-500 µM Phe. From the text:
HPLC of t-cinnamic acid formed, Michaelis-Menten fit on AaPAL1

Data set [2] deals with T2, N[C@@H](Cc1ccc(O)cc1)C(=O)O.
T2 construct: full-length, 752 residues (81,895 Da), N-terminal 6xHis-tag kept (84,058 Da with tag), pET15b, E. coli SoluBL21, Ni-NTA; cDNA from suspension culture; PALs mostly homotetramers, oligomer not measured here
Nature of the data set: HPLC of 4-coumaric acid formed, Michaelis-Menten fit. The conditions noted are these: boric acid/sodium tetraborate buffer pH 8.8, 36 °C, 10 min, 0-9.6 mM Tyr. From the text: HPLC of 4-coumaric acid formed, Michaelis-Menten fit on AaPAL1

In data set [3] the test system is T3, N[C@@H](Cc1ccc(O)cc1)C(=O)O.
T3 construct: full-length, 753 residues (81,704 Da), N-terminal 6xHis-tag kept (83,867 Da with tag), pET15b, E. coli SoluBL21, Ni-NTA; cDNA from suspension culture; PALs mostly homotetramers, oligomer not measured here
The data set is described as above. The note with it: boric acid/sodium tetraborate buffer pH 8.8, 36 °C, 15 min, 0-9.6 mM Tyr. From the text: HPLC of 4-coumaric acid formed, Michaelis-Menten fit on AaPAL2

Data set [4] concerns T4, N[C@@H](Cc1ccccc1)C(=O)O.
T4 construct: full-length, 753 residues (81,704 Da), N-terminal 6xHis-tag kept (83,867 Da with tag), pET15b, E. coli SoluBL21, Ni-NTA; cDNA from suspension culture; PALs mostly homotetramers, oligomer not measured here
Nature of the data set: HPLC of t-cinnamic acid formed, Michaelis-Menten fit. The conditions noted are these: boric acid/sodium tetraborate buffer pH 8.8, 36 °C, 4 min, 1-500 µM Phe. From the text: HPLC of t-cinnamic acid formed, Michaelis-Menten fit on AaPAL2

AaPAL1 (Anthoceros agrestis), sequence (chain, as listed by the source): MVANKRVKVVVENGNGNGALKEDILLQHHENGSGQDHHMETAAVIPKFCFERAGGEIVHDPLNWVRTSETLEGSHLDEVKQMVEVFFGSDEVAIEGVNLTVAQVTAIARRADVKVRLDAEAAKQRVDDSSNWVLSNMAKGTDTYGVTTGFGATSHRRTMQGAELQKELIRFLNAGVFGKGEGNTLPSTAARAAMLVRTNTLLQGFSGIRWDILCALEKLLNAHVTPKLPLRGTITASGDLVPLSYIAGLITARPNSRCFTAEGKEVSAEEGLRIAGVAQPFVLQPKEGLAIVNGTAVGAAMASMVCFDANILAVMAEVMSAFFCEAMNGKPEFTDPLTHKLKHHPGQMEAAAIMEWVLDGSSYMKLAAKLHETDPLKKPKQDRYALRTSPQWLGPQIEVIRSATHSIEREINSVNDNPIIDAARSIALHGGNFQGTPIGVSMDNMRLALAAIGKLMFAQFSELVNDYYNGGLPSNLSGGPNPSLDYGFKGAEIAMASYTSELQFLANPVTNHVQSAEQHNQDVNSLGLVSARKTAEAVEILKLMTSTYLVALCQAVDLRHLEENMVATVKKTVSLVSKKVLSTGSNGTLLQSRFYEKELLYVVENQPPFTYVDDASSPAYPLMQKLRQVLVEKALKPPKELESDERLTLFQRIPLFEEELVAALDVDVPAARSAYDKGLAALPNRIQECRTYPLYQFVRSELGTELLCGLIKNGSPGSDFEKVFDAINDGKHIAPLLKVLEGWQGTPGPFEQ
AaPAL2 (Anthoceros agrestis), sequence (chain, as listed by the source): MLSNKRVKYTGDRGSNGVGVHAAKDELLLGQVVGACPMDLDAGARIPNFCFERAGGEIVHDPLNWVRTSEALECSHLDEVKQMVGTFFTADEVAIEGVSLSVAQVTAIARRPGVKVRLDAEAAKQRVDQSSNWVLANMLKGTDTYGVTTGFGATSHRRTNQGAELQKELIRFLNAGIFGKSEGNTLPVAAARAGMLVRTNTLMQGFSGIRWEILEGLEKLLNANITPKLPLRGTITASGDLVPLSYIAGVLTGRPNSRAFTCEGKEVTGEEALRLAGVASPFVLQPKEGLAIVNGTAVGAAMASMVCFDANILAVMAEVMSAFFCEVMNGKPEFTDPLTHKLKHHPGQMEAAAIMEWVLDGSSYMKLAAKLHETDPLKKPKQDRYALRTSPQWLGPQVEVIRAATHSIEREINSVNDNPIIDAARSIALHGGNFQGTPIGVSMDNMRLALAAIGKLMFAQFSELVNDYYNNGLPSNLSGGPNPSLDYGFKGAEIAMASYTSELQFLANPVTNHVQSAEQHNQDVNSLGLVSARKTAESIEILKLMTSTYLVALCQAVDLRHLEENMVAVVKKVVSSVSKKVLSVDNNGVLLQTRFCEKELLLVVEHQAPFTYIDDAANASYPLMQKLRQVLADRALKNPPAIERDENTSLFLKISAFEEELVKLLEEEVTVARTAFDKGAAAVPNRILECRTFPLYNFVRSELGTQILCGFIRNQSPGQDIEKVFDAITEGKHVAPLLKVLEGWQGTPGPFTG

In the case of AaPAL1 (Anthoceros agrestis), in the data set with N[C@@H](Cc1ccccc1)C(=O)O [1], the Km is given as 39 ± 15 µM, the Vmax came out at 0.252 µmol/min/mg, the kcat amounted to 0.353 s⁻¹ and the kcat/Km worked out at 9050 M⁻¹ s⁻¹. Besides, in data set [2], the Km is 3308 ± 987 µM, the Vmax turned out to be 0.058 µmol/min/mg, the kcat is 0.081 s⁻¹ and the kcat/Km was 24.5 M⁻¹ s⁻¹.
On to AaPAL2 (Anthoceros agrestis), for which, in data set [3], the Michaelis constant (Km) came out at 3526 ± 617 µM, the Vmax amounted to 0.0296 µmol/min/mg, the kcat was 0.041 s⁻¹ and the catalytic efficiency (kcat/Km) was 11.6 M⁻¹ s⁻¹. For the same substance, in the data set with N[C@@H](Cc1ccccc1)C(=O)O [4], the Km is given as 18 ± 4 µM, the Vmax is 0.206 µmol/min/mg, the kcat turned out to be 0.288 s⁻¹ and the kcat/Km came to 16000 M⁻¹ s⁻¹.
